Experiment: soluble on expression in E. coli; label from the status in PepcDB or PDB records
In the case of “YPHHLGTSPRHPLNSGTEMAGGAWGRLACYLEFLKKEELKEFQLLLANKAHSRSSSGETPAQPEKTSGMEVASYLVAQYGEQRAWDLALHTWEQMGLRSLCAQAQEGAGHSPSFPYSPSEPHLGSPSQPTSTAVLMPWIHELPAGCTQGSERRVLRQLPDTSGRRWREISASLLYQALPSSPDHESPSQESPNAPTSTAVLGSWGSPPQPSLAPREQEAPGTQWPLDETSGIYYTEIREREREKSEKGRPPWAAVVGTPPQAHTSLQPHHHPWEPSVRESLCSTWPWKNEDFNQKFTQLLLLQRPHPRSQDPLVKRSWPDYVEENRGHLIEIRDLFGPGLDTQEPRIVILQGAAGIGKSTLARQVKEAWGRGQLYGDRFQHVFYFSCRELAQSKVVSLAELIGKDGTATPAPIRQILSRPERLLFILDGVDEPGWVLQEPSSELCLHWSQPQPADALLGSLLGKTILPEASFLITARTTALQNLIPSLEQARWVEVLGFSESSRKEYFYRYFTDERQAIRAFRLVKSNKELWALCLVPWVSWLACTCLMQQMKRKEKLTLTSKTTTTLCLHYLAQALQAQPLGPQLRDLCSLAAEGIWQKKTLFSPDDLRKHGLDGAIISTFLKMGILQEHPIPLSYSFIHLCFQEFFAAMSYVLEDEKGRGKHSNCIIDLEKTLEAYGIHGLFGASTTRFLLGLLSDEGEREMENIFHCRLSQGRNLMQWVPSLQLLLQPHSLESLHCLYETRNKTFLTQVMAHFEEMGMCVETDMELLVCTFCIKFSRHVKKLQLIEGRQHRSTWSPTMVVLFRWVPVTDAYWQILFSVLKVTRNLKELDLSGNSLSHSAVKSLCKTLRRPRCLLETLRLAGCGLTAEDCKDLAFGLRANQTLTELDLSFNVLTDAGAKHLCQRLRQPSCKLQRLQLVSCGLTSDCCQDLASVLSASPSLKELDLQQNNLDDVGVRLLCEGLRHPACKLIRLGLDQTTLSDEMRQELRALEQEKPQLLIFSRRKPSVMTPTEGLDTGEMSNSTSSLKRQRLGSERAASHVAQANLKLLDVSKIFPIAEIAEESSPEVVPVELLCVPSPASQGDLHTKPLGTDDDFWGPTGPVATEVVDKEKNLYRVHFPVAGSYRWPNTGLCFVMREAVTVEIEFCVWDQFLGEINPQHSWMVAGPLLDIKAEPGAVEAVHLPHFVALQGGHVDTSLFQMAHFKEEGMLLEKPARVELHHIVLENPSFSPLGVLLKMIHNALRFIPVTSVVLLYHRVHPEEVTFHLYLIPSDCSIRKELELCYRSPGEDQLFSEFYVGHLGSGIRLQVKDKKDETLVWEALVKPGDLMPATTLIPPARIAVPSPLDAPQLLHFVDQYREQLIARVTSVEVVLDKLHGQVLSQEQYERVLAENTRPSQMRKLFSLSQSWDRKCKDGLYQALKETHPHLIMELWEKGSKKGLLPLSS”, the “soluble on expression in E. coli” value was “soluble”. In the case of “YTVEPVQDGERSVTLRRAGGTPLVAAMYHLPAAGSPDFVGLDLAATILADTPSGRLYHALVPTKLASGVFGFTMDQLDPGLAMFGAQLQPGMDQDKALQTLTATLESLSSKPFSQEELERARSKWLTAWQQTYADPEKVGVALSEAIASGDWRLFFLQRDRVRDAKLDDVQRAAVAYLVRSNRTEGRYIPTEKPQRAPLAQRADLAAV”, the “soluble on expression in E. coli” value was “soluble”. With “YWGPLDVGEAKSLPGMEDPKLVYIPSIAPSNMVLYRGDKYSELDGKILVGALKLTHINVVGINDGKLTESQRLLEKLGERIRDITISPDGYIYFSTDSGKIFRLTEQ” the “soluble on expression in E. coli” value was “not soluble”.
